B1: Hairpin Ribozyme (parent)
chain: GUCCUCUUUCACGUGCGCGUGAAAGAGAGAAGUGAACCAGAGAAACACACGUUGUGGUAUAUUACCUGGUA

Variants of: B1
Assay: self-cleavage, relative activity (ratio to wild type); higher = more cleavage; co-transcriptional

Variant | self-cleavage
A43C C66G | 0.0604
A41G C46G | 0.116
G40A C46A | 0.184
G42A A45G | 0.138
A41C U63C | 0.192
A41C U63A | 0.108
A41C U63G | 0.102
G42U C48U | 0.132
G40A G51C | 0.238
G40A U62G | 0.133
A43G A64G | 0.132
A41U A47U | 0.207
A41U A47G | 0.207
G40A A45U | 0.149
A43C U53G | 0.103
A41U U67A | 0.364
A41U U67G | 0.534
A41G U67G | 0.5
A41G U67C | 0.483
A41U A59C | 0.158
A41U A59G | 0.255
A41C A64U | 0.267
G40C C46A | 0.155
A39U U70G | 0.333

Variant | self-cleavage
A41G G42A | 0.282
A41G G42C | 0.0762
A41C U53C | 0.822
G42A C48U | 0.0486
A41G G57C | 0.172
A41C G42U | 0.231
G40A U55A | 0.157
A43G C50U | 0.198
G40A G69U | 0.197
A43G G56A | 0.0841
A41G G69C | 0.534
A41G G69A | 0.411
A41G U52C | 0.827
G40A A47G | 0.138
G42A U70G | 0.161
G40A A49U | 0.0787
G40A A49G | 0.182
A41C C48G | 0.199
G42A U60G | 0.157
G42A U60C | 0.371
A43G A59G | 0.094
A43C U70C | 0.164
A43C U70G | 0.12
A39U U67G | 0.371

Variant | self-cleavage
G42C U55G | 0.173
G42C U55A | 0.169
G42C U55C | 0.158
G40C C48G | 0.127
A43C A44C | 0.259
G42C G56A | 0.155
G42C U70A | 0.222
G42C U70C | 0.233
A43C C46A | 0.1
A43C C46G | 0.245
G40C A43G | 0.138
A41C A49C | 0.217
G40C G69A | 0.111
G40C G69U | 0.128
A41U C46A | 0.0476
G40U A41C | 0.255
G40U A41G | 0.419
A41U U58G | 1.02
A41U U58A | 1.2
G40C A64U | 0.125
A41C G57U | 0.502
G42A A61G | 0.201
G40U U63G | 0.104
G40U U63C | 0.092

Variant | self-cleavage
G42A U55C | 0.103
G42A U55A | 0.104
G42A U55G | 0.249
A41G G68C | 0.508
G42U G51C | 0.392
A41G U63G | 0.248
A41G U63C | 0.0946
A41C A47G | 0.0213
A41C A44C | 0.0994
A43G C46A | 0.153
G42A A64C | 0.129
A41U G54C | 0.891
A43C C48U | 0.16
A41G G56U | 0.195
G42C A59G | 0.195
G40U G42U | 0.116
A39U U60C | 0.378
A41C U60A | 1.17
A41C U60C | 1.27
G40U G57C | 0.124
G40U G57U | 0.153
A41U U53C | 1.25
G40C G68C | 0.0987
G40C G68A | 0.132

Variant | self-cleavage
G40A A44U | 0.178
A41G G54U | 0.577
A41C C46G | 0.117
A41G U58C | 0.911
A41G U58A | 0.46
G42C A61U | 0.136
G42C A61G | 0.178
A43G G51C | 0.107
A43G G51A | 0.0738
A41C G51C | 1.16
A41C G51A | 1.33
A41C G51U | 1.48
G40A G56C | 0.146
G40A G56U | 0.0994
G40U U53C | 0.344
G40U U53G | 0.151
A41C A43C | 0.0734
G42A A47C | 0.219
G40A G57A | 0.0955
A41U U52C | 1.11
A41U U52A | 1.23
G42C U52G | 0.237
G40A U70G | 0.182
G40A U70A | 0.158

Variant | self-cleavage
G40A G54U | 0.183
G40U G69C | 0.14
G42U U60C | 0.241
G42U U60A | 0.178
G42U U60G | 0.218
G40U C46G | 0.136
G42A A59G | 0.264
G42A A59U | 0.101
G40A C66U | 0.832
G40A C66G | 0.164
A41U A71G | 1.14
A41U A71C | 1.58
A41G U53A | 1.1
A41G U53C | 0.819
A41U U55C | 0.762
A41U U55G | 0.485
A41U U55A | 0.808
A43C G68C | 0
G40C G54U | 0.0743
G40C G54A | 0.124
G42C G51C | 0.227
G42C G68U | 0.138
G42C G68C | 0.151
G42C G68A | 0.119

Variant | self-cleavage
G40A A64U | 0.139
G40A A64C | 0.16
G40U G56U | 0.111
A41G U55C | 0.23
G40C A71U | 0.09
G40U A43G | 0.134
G40U A43U | 0.148
A43G A45G | 0.104
A43G A45C | 0.142
A41U C48G | 0.241
G40A A43U | 0.0963
G40A A43G | 0.18
A41G A59C | 0.436
A41U G51C | 1.27
G42C A47G | 0.116
A41G A44G | 0.249
G42A A71C | 0.566
G42A A71U | 0.159
G42C U63C | 0.148
G42A C66A | 0.0634
G42A C66G | 0.113
A43G A49G | 0.0811
A43C U63C | 0.157
G40U C48A | 0.0709

Variant | self-cleavage
G40C U67G | 0.157
A43G G68C | 0.0248
G42U A71C | 0.6
A43G G54U | 0.156
A43G G54C | 0.168
A41G U60C | 1.23
G42U A44C | 0.188
G42U A44U | 0.19
G40C U55A | 0.107
G40C A59C | 0.0991
G40C A59G | 0.0907
G42C A49C | 0.215
G42U A49C | 0.173
G42A U67C | 0.105
G42A A43U | 0.215
G42A U52G | 0.0884
G42A U52C | 0.208
A41G G51U | 0.552
A41G G51A | 1.09
G40C A41U | 0.13
A43C | 0.141
A43G | 0.148
A41C A61U | 0.234
A43C G51U | 0.0904

Variant | self-cleavage
A41U A45U | 0.0714
G42C U58A | 0.218
G42C U53A | 0.332
G40U A61G | 0.186
G40A A61G | 0.139
G42A C46A | 0.152
G40A C65A | 0.315
G40A C65U | 0.435
G40C U63C | 0.164
A41G A47C | 0.189
A41G A47U | 0.212
A41C U58A | 1.07
A43G G57A | 0.198
A43G G57U | 0.151
A43G C48A | 0.174
A43G C48U | 0.123
G42C A43U | 0.106
A41U G68U | 0.423
A41U G68C | 0.262
A41U U63A | 0.105
A41G C66G | 0.255
A41G U70G | 0.677
A41G U70C | 0.981
A41G C65A | 0.693

Variant | self-cleavage
A41C G54C | 0.676
A41U C50U | 0.781
G40C G51U | 0.131
G40C G51C | 0.127
A43C G69C | 0.196
A43C G69U | 0.161
A43C G69A | 0.105
A43C A59C | 0.195
G42U U63A | 0.195
G42A G69C | 0.118
A41C U52A | 1.17
G40C U52C | 0.137
G40C U52G | 0.064
A41C A45C | 0.11
A41C A45G | 0.257
A41C A45U | 0.202
G40C C66U | 0.184
G40C C66G | 0.519
G40C C66A | 0.105
A43C U62A | 0.12
G40U C65U | 0.177
G40U C65G | 0.099
A41C U67G | 0.124
G42U U53C | 0.233

Variant | self-cleavage
G42U U53A | 0.298
G40A C50A | 0.194
A41G A49U | 0.105
A41G A49G | 0.504
G42U C50U | 0.197
A41U U60G | 1.15
G42C G54A | 0.159
G42C G54U | 0.17
G40A G42A | 0.0412
A43G C65A | 0.0913
G40C G42C | 0.107
G40C G56A | 0.107
G42C C48A | 0.134
G40U G54U | 0.096
G40U U52A | 0.207
G40U U52C | 0.333
G40U U52G | 0.172
G42C A45C | 0.0604
A41G A61G | 0.179
A41C U62A | 0.325
A41C U62G | 0
G40U C50A | 0.0746
G40U C50G | 0.136
G42U U62C | 0.149

Variant | self-cleavage
G42U U62G | 0.22
G42U U62A | 0.2
A41U C66A | 0.271
A41U C66G | 0.172
A43C G54U | 0.241
A41C A59U | 0.173
A41C G56A | 0.155
G42U C46A | 0.201
A41U G57A | 0.145
A41U G57C | 0.178
G40A A71C | 0.574
G40A A71U | 0.198
G40A U52G | 0.212
A41G A43G | 0.157
G42U U58C | 0.259
G42U U58G | 0.192
G40U A71C | 0.319
G40U A71G | 0.209
G42U C65U | 0.12
A41U G42U | 0.325
A41U C65U | 1.19
A41U C65A | 0.756
G40A A41C | 0.274
G42U U67G | 0.127

Variant | self-cleavage
G42U A61C | 0.193
G40A U67C | 0.121
G40A U67A | 0.108
A43G A47G | 0.196
A41C C50G | 0.667
A41C C50U | 0.713
A41C U55A | 0.405
G40U U60C | 0.148
G42U A59U | 0.151
G42U A59C | 0.118
G42U A59G | 0.172
G40U U58G | 0.183
G42A U63C | 0.113
G40U U55G | 0.232
G40U U55C | 0.171
A39U U63C | 0.144
G40C A47U | 0.0303
G40U A49G | 0.175
A41C C66G | 0.292
A41C C66A | 0.214
A41C C66U | 0.614
G40A U60A | 0.271
G40A U60G | 0.214
G40U U62G | 0.111

Variant | self-cleavage
G40C A61G | 0.0698
G40U A59C | 0.0879
G40U A59G | 0.115
G40U U70G | 0.0618
A43G A61C | 0.0791
G40U G68A | 0.134
G40U G68C | 0.163
G42A C50U | 0.106
G42A C50G | 0.128
A43G A44G | 0.0966
A43C U52A | 0.136
A39U U62G | 0.088
G40C U58A | 0.16
G40C U58C | 0.0707
G40C C50A | 0.0683
G42C C46A | 0.166
G42A G57A | 0.14
G42A G57C | 0.0908
A43C U58C | 0.148
A43C U58G | 0.262
A43C G57C | 0.204
A43C G57A | 0.137
